Assay results taken from paper PMC6842113.

Molecular target: PSD-95 PDZ1 mutant (ED6N) (UniProt P78352)
Assay: ITC

Chain of PSD-95 PDZ1 mutant (ED6N) (P78352 60-151, change not shown): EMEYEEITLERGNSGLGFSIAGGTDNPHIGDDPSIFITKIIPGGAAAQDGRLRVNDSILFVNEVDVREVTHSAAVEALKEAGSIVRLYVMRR

B1: Stg_CT WT (domain or fragment)
chain: DRHKQLRATARATDYLQASAITRIPSYRYRYQRRSRSSSRSTEPSHSRDASPVGVKGFNTLPSTEISMYTLSRDPLKAATTPTATYNSDRDNSFLQVHNCIQKDSKDSLHANTANRRTTPV
With B1 the fold weakening of binding against PDZ1 WT was 8 fold.
